The values that follow come from US20200024330A1.

Holding throughout (assay): cell-based or functional assay
The target of assay [1] is HIV-1 MGRM-C-007 Env (HIV-1).
The target of assay [2] is HIV-1 Env of isolate MGRM-D-019 (clade D) (HIV-1).
The target in assay [3] is HIV-1 LAVI_C3 Env (HIV-1).
The target of assay [4] is HIV-1 MGRM-F1-008 Env (pseudovirus) (HIV-1).
For assay [5], the target named is HIV-1 MGRM-C-012 Env (HIV-1).
The target in assay [6] is HIV-1 Env of isolate MGRM-G-013 (clade G pseudovirus) (HIV-1).
Assay [7] concerns the target HIV-1 JR-CSF envelope protein (Env) on pseudovirus (HIV-1) (UniProt P20871).
The target in assay [8] is HIV-1 92RW026 envelope glycoprotein (Env) (HIV-1).
For assay [9], the target named is HIV-1 92RW008 envelope glycoprotein (Env) (HIV-1).
For assay [10], the target named is HIV-1 98CN009 envelope glycoprotein (Env) on pseudovirus (HIV-1).
Assay [11] concerns the target HIV-1 Env of isolate MGRM-G-025 (clade G pseudovirus) (HIV-1).
Assay [12] deals with HIV-1 Env of pseudovirus JRCSF, clade B (HIV-1) (UniProt P20871).
Assay [13] deals with HIV-1 Env of isolate MGRM-D-011 (clade D) (HIV-1).
In assay [14] the target is HIV-1 Env of isolate MGRM-G-015 (subtype G) (HIV-1).
Assay [15] concerns the target HIV-1 Env of isolate MGRM-D-019 (HIV-1).
Assay [16] addresses HIV-1 VLGCB3 Env (pseudovirus) (HIV-1).
The target in assay [17] is HIV-1 MGRM-Chronic-B-003 Env (pseudovirus) (HIV-1).
The target of assay [18] is HIV-1 Env of isolate MGRM-C-026 (pseudovirus) (HIV-1 isolate MGRM-C-026, subtype C).
For assay [19], the target named is HIV-1 Env of isolate 92UG024 (subtype D) (HIV-1).
The target in assay [20] is HIV-1 Env of isolate 97ZA012 (pseudovirus) (HIV-1 isolate 97ZA012, subtype C).
In assay [21] the target is HIV-1 QH0692.42 Env (pseudovirus) (HIV-1).
For assay [22], the target named is HIV-1 6535.3 Env (pseudovirus) (HIV-1).
The target of assay [23] is HIV-1 Env of isolate MGRM-C-001 (pseudovirus) (HIV-1 isolate MGRM-C-001, subtype C).
Assay [24] concerns the target HIV-1 Env of isolate MGRM-C-012 (pseudovirus) (HIV-1 isolate MGRM-C-012, subtype C).
Assay [25] concerns the target HIV-1 Env of isolate MGRM-C-023 (pseudovirus) (HIV-1 isolate MGRM-C-023, subtype C).
The target in assay [26] is HIV-1 Env of isolate 92WR009 (HIV-1).
Assay [27] concerns the target HIV-1 Env of isolate MGRM-G-013 (subtype G) (HIV-1).
Assay [28] deals with HIV-1 Env of isolate 92UG005 (HIV-1).
For assay [29], the target named is HIV-1 Env of isolate MGRM-D-018 (HIV-1).
Assay [30] concerns the target HIV-1 Env of isolate TRJ04551.58 (HIV-1).
Assay [31] deals with HIV-1 Env of isolate MGRM-Chronic-B-001 (HIV-1).

Chain of 1443_C16 (PG16) (TCN-116) (antibody) (VH): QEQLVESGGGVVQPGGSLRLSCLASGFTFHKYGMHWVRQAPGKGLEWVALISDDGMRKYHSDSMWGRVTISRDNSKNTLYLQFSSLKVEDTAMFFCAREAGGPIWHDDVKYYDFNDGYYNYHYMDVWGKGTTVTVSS
Chain of 1443_C16 (PG16) (TCN-116) (antibody) (VL): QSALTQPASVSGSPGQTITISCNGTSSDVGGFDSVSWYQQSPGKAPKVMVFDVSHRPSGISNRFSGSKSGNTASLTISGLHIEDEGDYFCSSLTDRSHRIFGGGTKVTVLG
Chain of PGT-144 (4970_K22) (antibody) (VH): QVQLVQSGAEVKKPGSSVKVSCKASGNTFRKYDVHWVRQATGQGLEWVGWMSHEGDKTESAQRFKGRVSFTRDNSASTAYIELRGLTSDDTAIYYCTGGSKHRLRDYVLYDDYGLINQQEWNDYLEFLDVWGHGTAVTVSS
Chain of PGT-144 (4970_K22) (antibody) (VL): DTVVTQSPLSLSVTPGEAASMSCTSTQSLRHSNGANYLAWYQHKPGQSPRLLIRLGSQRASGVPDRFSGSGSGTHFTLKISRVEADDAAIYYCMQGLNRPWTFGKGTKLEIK
Chain of PGT-142 (4995_E20) (antibody) (VH): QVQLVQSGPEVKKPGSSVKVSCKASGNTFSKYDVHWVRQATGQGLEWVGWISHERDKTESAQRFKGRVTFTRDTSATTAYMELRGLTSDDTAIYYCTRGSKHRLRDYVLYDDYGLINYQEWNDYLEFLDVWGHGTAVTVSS
Chain of PGT-142 (4995_E20) (antibody) (VL): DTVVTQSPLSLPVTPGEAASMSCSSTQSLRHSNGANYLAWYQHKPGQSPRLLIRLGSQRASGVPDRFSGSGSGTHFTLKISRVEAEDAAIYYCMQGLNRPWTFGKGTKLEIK
Chain of PGT-143 (4980_N08) (antibody) (VH): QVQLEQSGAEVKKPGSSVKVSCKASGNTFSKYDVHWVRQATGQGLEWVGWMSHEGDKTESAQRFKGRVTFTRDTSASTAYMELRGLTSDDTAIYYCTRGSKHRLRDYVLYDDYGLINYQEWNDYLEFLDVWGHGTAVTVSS
Chain of PGT-143 (4980_N08) (antibody) (VL): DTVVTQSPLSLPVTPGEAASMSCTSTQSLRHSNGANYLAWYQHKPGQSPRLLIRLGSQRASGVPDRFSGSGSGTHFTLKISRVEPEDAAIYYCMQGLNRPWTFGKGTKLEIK
Chain of PGT-141 (4964_G22; 4993_K13) (antibody) (VH): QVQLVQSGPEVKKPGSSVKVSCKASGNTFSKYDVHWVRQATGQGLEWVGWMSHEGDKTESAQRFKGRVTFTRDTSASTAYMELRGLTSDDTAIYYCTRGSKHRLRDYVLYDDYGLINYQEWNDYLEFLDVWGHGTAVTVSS

In the case of 2F5 (antibody), the IC50 in [1], in [3] and in [5] was > 50 µg/mL throughout. Besides, the IC50 (µg/ml), pseudovirus neutralization was 0.14 µg/mL in assay [2]; 1.61 µg/mL in assay [4]; 0.59 µg/mL in [6]; 8.63 µg/mL in assay [8]; 10.4 µg/mL in assay [9]; > 50 µg/mL in assay [10]. Also, the results for the IC50 (µg/ml), pseudovirus neutralization in assay [11], in assay [12] and in assay [13] were > 50 µg/mL, 1.85 µg/mL and > 50 µg/mL, respectively. The neutralization IC50 in assay [7] amounted to 3.36 µg/mL.
2G12 (antibody): the concentration for half-maximal inhibition (IC50) in [1], in assay [3] and in assay [5] was > 50 µg/mL in each case. Moreover, the IC50 (µg/ml), pseudovirus neutralization in assay [2] was > 50 µg/mL; in assay [4], > 50 µg/mL; in assay [6], > 50 µg/mL; in assay [8], 17.2 µg/mL; in assay [9], 22.5 µg/mL; in assay [10], > 50 µg/mL. For the same substance, the figures for the IC50 (µg/ml), pseudovirus neutralization in assay [11], in [12] and in assay [13] were 31.9 µg/mL, 0.37 µg/mL and 1.5 µg/mL, respectively. Besides, the neutralization IC50 in assay [7] is 0.66 µg/mL.
Regarding 4E10 (antibody), the IC50 (as a rule, the midpoint of a concentration-inhibition curve) worked out at 5.84 µg/mL in assay [1], 2.85 µg/mL in [3] and 0.44 µg/mL in assay [5]. Further, the IC50 (µg/ml), pseudovirus neutralization in assay [2] was found to be 0.04 µg/mL; in assay [4], 2.75 µg/mL; in [6], 1.15 µg/mL; in [8], 12.9 µg/mL; in [9], 14.5 µg/mL; in [10], 2.46 µg/mL. Moreover, the figures for the IC50 (µg/ml), pseudovirus neutralization in [11], in assay [12] and in [13] were 1.7 µg/mL, 3.3 µg/mL and 0.91 µg/mL, respectively. The neutralization IC50 in assay [7] was 6 µg/mL.
In the case of 1443_C16 (PG16) (TCN-116) (antibody), the IC50 in assay [1] turned out to be 0.05 µg/mL; in assay [3] it was 9.55 µg/mL; in [5], 0.48 µg/mL. In addition, the IC50 (µg/ml), pseudovirus neutralization in [2] was 0.01 µg/mL; in [4], > 50 µg/mL; in assay [6], > 50 µg/mL; in [8], 0.03 µg/mL; in assay [9], 0.002 µg/mL; in assay [10], 5.76 µg/mL. The IC50 (µg/ml), pseudovirus neutralization in [11] is > 50 µg/mL; in assay [12] it was 0.001 µg/mL; in [13] it was 0.01 µg/mL. Moreover, the neutralization IC50 in assay [7] is < 0.0025 µg/mL.
Turning to 1495_C14 (PGC14) (antibody), the IC50 in assay [1] was > 50 µg/mL; in assay [3], 12 µg/mL; in [5], > 50 µg/mL. In addition, the IC50 (µg/ml), pseudovirus neutralization in assay [2] was > 50 µg/mL; in assay [4], > 50 µg/mL; in assay [6], > 50 µg/mL; in assay [8] it was > 50 µg/mL; in assay [9] it was 37 µg/mL; in [10], 43 µg/mL. Besides, the results for the IC50 (µg/ml), pseudovirus neutralization in assay [11], in assay [12] and in assay [13] were > 50 µg/mL, 15 µg/mL and > 50 µg/mL, respectively. In assay [7], the neutralization IC50 was > 50 µg/mL.
For 1496_C09 (PG9) (TCN-109) (antibody), the values for the IC50 in [1], in [3] and in assay [5] were 0.09 µg/mL, 1.45 µg/mL and 0.24 µg/mL, respectively. The IC50 (µg/ml), pseudovirus neutralization came to 0.03 µg/mL in [2]; 0.27 µg/mL in [8]; 0.01 µg/mL in assay [9]; 1.07 µg/mL in assay [10]; 0.003 µg/mL in assay [12]; 0.06 µg/mL in assay [13]. Moreover, the results for the neutralization IC50 in assay [14] and in [7] were 6.6 µg/mL and < 0.0025 µg/mL, respectively. The IC50 (µg/mL), pseudovirus neutralization in [15] worked out at 0.038 µg/mL.
4838_L06 (PGT-121) (antibody): the IC50, pseudovirus neutralization is 0.005 µg/mL in assay [16], 0.011 µg/mL in assay [17], 0.823 µg/mL in assay [21] and 0.005 µg/mL in assay [22]. Also, the IC50 (µg/mL) neutralization worked out at 0.002 µg/mL in assay [18]; 0.002 µg/mL in [20]; 17.5 µg/mL in assay [23]; 0.123 µg/mL in assay [24]; 0.017 µg/mL in assay [25]. In addition, the IC50 (µg/mL), pseudovirus neutralization in assay [19] is > 50 µg/mL.
As for 4877_D15 (PGT-122) (antibody), the IC50, pseudovirus neutralization amounted to 0.008 µg/mL in assay [16], 0.008 µg/mL in assay [17], 0.493 µg/mL in [21] and 0.006 µg/mL in [22]. For the same substance, the IC50 (µg/mL) neutralization in [18] was 0.006 µg/mL; in assay [20] it was 0.004 µg/mL; in [23] it was 19.1 µg/mL; in assay [24], 2 µg/mL; in assay [25], 0.027 µg/mL. Further, the IC50 (µg/mL), pseudovirus neutralization in [19] is > 50 µg/mL.
Consider PGT-121 (antibody), for which the IC50 (µg/mL), pseudovirus neutralization in assay [26] was determined as 1.74 µg/mL.
The same measure, in the same setting: the value for PGT-122 (antibody) was 42.4 µg/mL.
As to PGT-141 (4964_G22; 4993_K13) (antibody), the neutralization IC50 in assay [14] and in assay [27] was > 50 µg/mL in each case.
As for PGT-142 (4995_E20) (antibody), the neutralization IC50 in assay [14] and in assay [27] was > 50 µg/mL each time.
Turning to PGT-143 (4980_N08) (antibody), the neutralization IC50 in assay [14] and in assay [27] was > 50 µg/mL throughout.
As to PGT-144 (4970_K22) (antibody), the neutralization IC50 in assay [14] and in [27] was > 50 µg/mL throughout.
For PGV04 (antibody), the values for the neutralization IC50 in [14] and in assay [27] were 0.333 µg/mL and 0.168 µg/mL, respectively. In addition, the IC50 (µg/mL), pseudovirus neutralization was 0.44 µg/mL in assay [28], 0.35 µg/mL in assay [15] and 17.5 µg/mL in [29].
As to VRC01 (antibody), the neutralization IC50 in assay [14] came to 0.548 µg/mL; in [27], 0.553 µg/mL; in [30] it was 0.06 µg/mL. Also, the figures for the IC50, pseudovirus neutralization in assay [15] and in [29] were 0.119 µg/mL and > 50 µg/mL, respectively. For the same substance, the IC50 in [31] turned out to be 0.066 µg/mL.
In the case of b12 (antibody), the IC50 in assay [1] was > 50 µg/mL; in [3] it was 0.94 µg/mL; in assay [5], > 50 µg/mL. For the same substance, the IC50 (µg/ml), pseudovirus neutralization in [2] is > 50 µg/mL; in [4], > 50 µg/mL; in [6], > 50 µg/mL; in assay [8] it was > 50 µg/mL; in [9] it was 9.46 µg/mL; in assay [10], 1.52 µg/mL. Further, the figures for the IC50 (µg/ml), pseudovirus neutralization in assay [11], in assay [12] and in assay [13] were > 50 µg/mL, 0.21 µg/mL and 7.75 µg/mL, respectively. In assay [7], the neutralization IC50 came to 0.16 µg/mL.
